From patent publication US20090130192A1 (UNIVERSITY OF MANCHESTER, published 2009)

T1: full-length recombinant opticin (bovine (stated in Example 6 only; not …, UniProt P58874 20-321)
T1 construct: mature; also called recombinant bovine opticin; class III SLRP opticin
T1 sequence (looked up): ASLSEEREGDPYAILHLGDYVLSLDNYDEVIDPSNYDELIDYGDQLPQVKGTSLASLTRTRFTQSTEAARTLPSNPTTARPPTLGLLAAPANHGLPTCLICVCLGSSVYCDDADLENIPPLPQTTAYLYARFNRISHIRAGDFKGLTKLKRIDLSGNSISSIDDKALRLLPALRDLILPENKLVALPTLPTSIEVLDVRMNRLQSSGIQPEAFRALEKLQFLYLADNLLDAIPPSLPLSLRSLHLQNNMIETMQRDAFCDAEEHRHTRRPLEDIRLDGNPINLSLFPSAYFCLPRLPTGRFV


Key:
[1] = molecular target: T1, full-length recombinant opticin; experiment: solid-phase binding assay, receptor coated at 2 µg/ml, opticin titrated, detected with opticin-specific antibody; apparent Kd
VEGF164 = experiment: solid-phase binding assay, growth factor coated at 2 µg/ml, opticin titrated, detected with opticin-specific antibody; apparent Kd
[2] = molecular target: basic fibroblast growth factor (FGF-2); experiment: as above
[3] = molecular target: basic fibroblast growth factor (FGF-2); experiment: cell-based or functional assay
[4] = molecular target: vascular endothelial growth factor (VEGF), isoform not stated; experiment: cell-based or functional assay

Sequence of basic fibroblast growth factor (FGF-2) (P09038 143-288): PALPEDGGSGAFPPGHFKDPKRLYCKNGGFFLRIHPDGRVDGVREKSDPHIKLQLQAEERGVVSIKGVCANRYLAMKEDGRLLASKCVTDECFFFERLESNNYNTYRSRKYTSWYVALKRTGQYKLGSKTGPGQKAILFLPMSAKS

Binder	Kd [1]	Kd (VEGF164)	Kd [2]	inhibition of FGF-2 induced BAEC proliferation [3]	reduction of FGF-2-induced BAEC migration, 10 µg/ml opticin [3]	reduction of FGF-2-induced BAEC sprouting [3]	inhibition of VEGF induced BAEC proliferation [4]	reduction of VEGF-induced BAEC migration, 10 µg/ml opticin [4]	reduction of VEGF-induced BAEC sprouting [4]
VEGF-R1, soluble extracellular domain (receptor) SKLKDPELSLKGTQHIMQAGQTLHLQCRGEAAHKWSLPEMVSKESERLSITKSACGRNGKQFCSTLTLNTAQANHTGFYSCKYLAVPTSKKKETESAIYIFISDTGRPFVEMYSEIPEIIHMTEGRELVIPCRVTSPNITVTLKKFPLDTLIPDGKRIIWDSRKGFIISNATYKEIGLLTCEATVNGHLYKTNYLTHRQTNTIIDVQISTPRPVKLLRGHTLVLNCTATTPLNTRVQMTWSYPDEKNKRASVRRRIDQSNSHANIFYSVLTIDKMQNKDKGLYTCRVRSGPSFKSVNTSVHIYDKAFITVKHRKQQVLETVAGKRSYRLSMKVKAFPSPEVVWLKDGLPATEKSARYLTRGYSLIIKDVTEEDAGNYTILLSIKQSNVFKNLTATLIVNVKPQIYEKAVSSFPDPALYPLGSRQILTCTAYGIPQPTIKWFWHPCNHNHSEARCDFCSNNEESFILDADSNMGNRIESITQRMAIIEGKNKMASTLVVADSRISGIYICIASNKVGTVGRNISFYITDVPNGFHVNLEKMPTEGEDLKLSCTVNKFLYRDVTWILLRTVNNRTMHYSISKQKMAITKEHSITLNLTIMNVSLQDSGTYACRARNVYTGEEILQKKEITIRDQEAPYLLRNLSDHTVAISSSTTLDCHANGVPEPQITWFKNNHKIQQEPGIILGPGSSTLFIERVTEEDEGVYHCKATNQKGSVESSAYLTVQGTSDKSNLE	21 nM								
full-length recombinant opticin (protein, UniProt P58874 20-321, looked up) ASLSEEREGDPYAILHLGDYVLSLDNYDEVIDPSNYDELIDYGDQLPQVKGTSLASLTRTRFTQSTEAARTLPSNPTTARPPTLGLLAAPANHGLPTCLICVCLGSSVYCDDADLENIPPLPQTTAYLYARFNRISHIRAGDFKGLTKLKRIDLSGNSISSIDDKALRLLPALRDLILPENKLVALPTLPTSIEVLDVRMNRLQSSGIQPEAFRALEKLQFLYLADNLLDAIPPSLPLSLRSLHLQNNMIETMQRDAFCDAEEHRHTRRPLEDIRLDGNPINLSLFPSAYFCLPRLPTGRFV		42 nM	34 nM	> 95%	86%	73%	> 90%	53%	70%
